The series has as its system CC1=CC(=O)c2ccccc2C1=O. The series is described as follows: purified protein.

Results on one substance are retold here after article PMC3567243 (Molecular Microbiology, 2012).

By Km is commonly meant the concentration of substrate that gives half-maximal velocity. A word on the kcat/Km: it is the turnover number divided by the Michaelis constant. For (Mycobacterium tuberculosis H37Rv), the Km came out at 17.29 ± 11.63 µM and the catalytic efficiency (kcat/Km) was 94500 M⁻¹ s⁻¹.
